Experimental findings from the nanobody polyreactivity screen of Harvey et al. (2022) are described below.

A short description of this series: yeast display, Sf9 membrane polyspecificity reagent, FACS + sequencing; frameworks hold sequencing errors. In short, it runs like this: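 After 36–48 hours of galactose induction, yeast (Saccharomyces cerevisiae BJ5465) displaying a synthetic nanobody library were stained at 4 °C for 1 hour with 10% biotinylated, detergent-solubilized Sf9 membrane reagent. Streptavidin microbeads enriched the stained cells before FACS sorting into low and high (top ~1%) gates on anti-HA and streptavidin fluorescence. Each clone's polyreactivity label reflects its gate of origin.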
As for “QVQLVESGGGLVQAGGSLRLSCAASGFTFSRNTMGWYRQAPGKERELVAAITWRGGSTYYADSVKGRFTISRDNAKNTVYLQMNSLKPEDTAVYYCAASSPNLEFDYWGQGTQVTVSS”, the “polyreactivity (PSR sort gate)” value is reported as “high polyreactivity”. The entry for “QVQLVESVGGLDQAGGSLRLRCAASGFIVGYYAMGWYRQAPGKEWEFVAAISWTGGNTYYADSVKGRFTISRDNAKNTVSLQLNSLKPEDTAVYYCNVVVSGYADRDGYNYWGQRTQVTVSS” is “high polyreactivity”. As for “QVQLVESAGGLVQAGCSLRLSCAASGSPFGYYAMGWYRQAPGKVRELVAAISRSGVSTYYADSVKGRFTISRDNAKNTFYLQMNSLKPEDTAVYYCDRVRSTPGSYNRFYYWGQGTQVTVSS”, the “polyreactivity (PSR sort gate)” value is “high polyreactivity”.

Regarding “QVQLVESGGGLVQAGGSLRLSCAASGFIFRRYVMGWYRQAPGKERELVAAISRGGSTYYADSVKGRFTISRDNAKNTVYLQMNSLKPEDTAVYYCNTPGGFVGDDYDYWGQGTQVTVSS”, the “polyreactivity (PSR sort gate)” value is “high polyreactivity”. Turning to “QVQLVESGGGLVQAGGSLRLSSAASGNIFDYYAMGCYRQAPGKERELVASISWSGRGTYYADSVKGRFTISRDNAKNTVYVQMTSLKAEDTAVYYCAADGSTVNAPRWSDPYDYWGQGSQVTVSS”, the “polyreactivity (PSR sort gate)” value is given as “low polyreactivity”. In the case of “QVQLVQSGGGLVQAGGSLRLSCAASGITFEYNTMGWYRQAPGKERELVAAITQGGGTTNYADSVKGRFTISRDNAKNTVYLQMNSLKPEDTAVYYCAAFVGYLLLYYPTYYYWGQGTEVTVSS”, the “polyreactivity (PSR sort gate)” value is on record as “low polyreactivity”. Next, “QVQLVESGGGLVQAGGSLRLSCAASGSTFAYYAMGWYRQAPGKERELVAAITIDGRTSYADSVKGRFTISRDNAKNTVYLQMNSLKAEDTAVYYCAADSSAWLYDYWGQGTQVTVSS”: “low polyreactivity”; “QVQLVESGGGLVQAGGSLRLSCAASGYIFHYNTMGWYRQAPGKERELVAAITWSGGNTYYADSVKGRFTISRDNAKNTVYLQMNSLKPEDTAVYYFAKLNYSPEATRSNYWGQGTQVTVSS”: “low polyreactivity”. Next, “QVQLVESRGGLVQAGGSLRLSCAASGSTILQYAMGWYRQAPGNERELVAAIRFSTGTTYYADSVKGRFTISRDTANNTVYLQMNSLKPEDTAVYYCAALARTRGRKYGYWGHGTQVTVSS”: “high polyreactivity”; “QVQLVESGGGLVQEGGSLRLSCAASGLTFYYYAMGWYRPAPGKERELVAAISRSGGSTYYADSVKGRFTISRDNAKITVYLQMNSLIPEDTAVYYCASRDHAGYYKYDYWGQGTQVTVSS”: “high polyreactivity”. Take “QLQIVESGGGLVQAGGSLRLTCAASGSTFPLYAMGWYSQAPGKEREFVAAIRWIGGSTYYADSVKGRFTISRDNAKNSVYLLMNSLKPEDTAVYYGAADYVVSAFDYWGQGTQVTVSS”: the “polyreactivity (PSR sort gate)” value is recorded as “low polyreactivity”. With “QVQLVESGGGLVQAGGSLRLSCAASGSTFAVNVMGWYRQAPGKERELVATITYRDGRTYYADSVKGRFTISRDIAKYTVFLQMNSLKPEDTAVYYCAADDEYTQEAEMDSWGQGTQVTVSS”, the “polyreactivity (PSR sort gate)” value was “low polyreactivity”. The entry for “QVQLVESGGGLVQAGGSLRLSCAASGFIFTAYAMGWYRQAPGKERELVAGIRSGSATYYADSVKGRFTISRDNAKNTVYLQMNILKPEDTAVYYCNAEKYNFIYAYEYWGQGTQVTVSS” is “low polyreactivity”; for “QVQLVESGGGLVQAGGSLRLSCASSGFTFAYYAMGWYRQAPGKERELVAAISSRGGSTYADSVKGRFTISRDNAKNTVYLQMNSLKPEYTAVYYCNAVVPRSRYFSWTYDYWGQGTQVTVSS” it is “high polyreactivity”. The entry for “QVQLVESGGGLVQAGGSLRLSCAASGRIFKRYDMGWYRQAPWKERELVAAITGTGGSTYYADSVKGRFTISRDNAKNTVYLQMNSLKPEDTAVYYCAARLYNTYSGFAFGYWGQGTQVTVSS” is “high polyreactivity”. The entry for “QVQLVESGGGLVQAGGSLRLSCAASGFIFAGYHMAWYRQAPGKERELVAAISSSGANTYYADSVKGRFTISRDNAKNTVYLQMNSLKPEYSAVYYCAALYHWTYDYWGQGTQVTVSS” is “low polyreactivity”; for “QVQLVESGGGLVQAGGSLRLSCAASGSIFSQYAMGWYRQAPGKERELVAAISSSGDSTNYADSVKGRFTISRDNAKNTVYLQMNSLKPEDTAVYYCNADTYWYRDSRYDYWGQGTQVTVSS” it is “low polyreactivity”; for “QVQLVESGGGLVQAGGSLRLSCAASGSTFGPYVMGWYRQAPGKERELVAAISRIGGRTYYADSVKGRFTISRDNAKNTVYLQMNSLKPEDTAVYYCAAKVGLYGDDYWGQGTQVTVSS” it is “high polyreactivity”. As to “QVQLVESGGGLVQAGGSLRLSCAASGRTFDFYVMGWYRHAPGKERELVAAISSGGSTNYADSVKGRFTISRDNAKYTVYLQMNSLKPEDTAVYYCAADPSGDYWGQGTQVTVSS”, the “polyreactivity (PSR sort gate)” value is listed as “low polyreactivity”. With “QVQLVESGGGLVQAGGSLRLSCAASGSIFYGNAMGWYRQAPGKERELVASITYSGGTTNYADSVKGRFTISRDNAKNTVYLQMNSLKPEDTAVYYCNADIYPDRYGSTNYDFNYWGQGTQVTVSS”, the “polyreactivity (PSR sort gate)” value is on record as “low polyreactivity”. Take “QVQLVESGGGLVQAGGSLRLSCAASGSIFTHYAMGWYRPAPGKERELVATISNGDGSTYYADSVKGRFTISRDNAKNTVYLQMNSLKPEDTAVYYCNVDDFSQYADDSWGYEYWGQGTQVTVSS”: the “polyreactivity (PSR sort gate)” value was “low polyreactivity”. The entry for “QVQHVESAAGLVQAGGSLRLTCAASGSIFRVYTMGWSRQAPGKERELVAAISRSGGRTYYADSVKGRFTISRDNAKNTVYLQMNSLKPEDTAVYYCAKRGRVTYPYYYWGQGTQVTVSS” is “high polyreactivity”; for “QVQLVESGGGLVQAGGSLRLSCAASGRIFRINGMGWYRQAPGKEREFVAAITSGGGTYYADSVKGRFTISRDNAKNTVYLQMNSLKPEDTAVYYCAAPSYRTRYYYWGQGTQVTVSS” it is “high polyreactivity”; for “QVQLQESGGGLVQAGGSLRLSCAASGNIVDADIMGWYRQAPRKERELVASITDGGSTNYADSVKGRFTISRDNAKNTVYLQMNSLIPEDTAVYYCAAISYPDIPTYFDYDSEYFYWGQGTQVSVSS” it is “low polyreactivity”. Next, “QVQLVESGGALVQAGGSLRLSCAASGRTFLGYGMGWYRQAPGKERVLVAAITSGGGSTYYADSVKGRFTISRDNAKNPVYLQMNSLKPEDTAVYYCSAKYYRAYCPHSRTRGYWGQGTQVTVSS”: “high polyreactivity”. Next, “QVQLVESGGGLVQAGGSLRLSCAASGSSFKRYAMGWYRQAPGKERELVAAINWRGGRTYYADSVKGRFTISRDNAKNTVYLQMNSLKPEDTAVYYCNVVSNSYYYQHYYWGQGTQVTVSS”: “high polyreactivity”.

“QVQLVESGRGLVQAGCSLRLSCAASGRTFSLYAMGWYRQAPGKERELVAAITLSAGSTYYADSVKGRFTISRDNEKNTVYLQMNSLKPEDTAVYYCNTRTLVAMGYWGQGTQVTVSS”: the “polyreactivity (PSR sort gate)” value is on record as “high polyreactivity”.

Take “QVQLVESGGGLVQAGGSLRLSCAASGSIFTRYAMGWYRQAPGKERELVAAITASGGRTYYADSVKGRFTISRDNAKNTVYLQMNSLKPEDTAVYYCNTYWRYTSQLPYDYWGQGTQVTVSS”: the “polyreactivity (PSR sort gate)” value is reported as “high polyreactivity”. As to “QVQLVESGGGLVQAGGSLRLSCAASGFTFYANAMGWYRQAPGKERELVAAIDQSGTSTNYADSVKGRFTISRDNAKNTVYLQMNSLKPEDTAVYYCAADSSFYYYPLILFWGDYWGQGTQVTVSS”, the “polyreactivity (PSR sort gate)” value is given as “low polyreactivity”. “QVQLVESGGGLVQAGGSLRLSCAASGSIERNAMGWYRQAPGKERELVAAISRSGTRTYYADSVKGRFTISRDNAKNTVYLQMNSLKPEDTAVYYCAKASAQWVQFDYWGQGTQVTVSS”: the “polyreactivity (PSR sort gate)” value was “high polyreactivity”. For “QFQLVESGGGLVQAGGSLRLSCAASGSIFYGYAMGWYRQAPGKERELVARITGSGGDTSYADSVKGRFTISRDNAKNTVYLQMNSLKPEDTAVYYCNTDLYITYTLYTGSEYDYWGQGTQVTVSS”, the “polyreactivity (PSR sort gate)” value is “low polyreactivity”.

As to “QVQLVESGGGLVQAGGSLRLSCAASGSTFYYYALGWYRQAPGKERELVASITRGGGSTYYADSVKGRFTISRDNAKNTVYLQMNSLKPEDTAVYYCAARGRFRKYDYWGQGTQVTVSS”, the “polyreactivity (PSR sort gate)” value is “high polyreactivity”. As to “QVQLVESGGGLVQAGGSLRLSCPASGSTFRYYAMGWYRPAPGKERELVAGISSSGGSTYYADSVKGRFTISRDNAKNTVYLQMNSLKPEDTAVYYCNAARGTSRSWAVFADYDYWGQGSQVTVSS”, the “polyreactivity (PSR sort gate)” value is recorded as “high polyreactivity”. The entry for “QVQLVESGGGLVQAGGSLRLSCAASGRTFSYYAMGWYRKAPGKERELVAAFSGRGASTYYADSVKGRFTISRDNAKNTVYVQMNSLKPEDTAVYYCNAVPYYQYEYWGQGTQVTVSS” is “low polyreactivity”. Consider “QVQLVESGGGLVQAGGSLRLSCAASGRIFDLNAMGWYRQAPGKERELVADINSGGSTYYADSVKGRFTISRDNAKNTVYLQMNSLKPEDTAVYYCAVRRNQHVVQMYYWGQGTQVTVSS”, for which the “polyreactivity (PSR sort gate)” value is “low polyreactivity”. As for “QVQLVESGGGLVQAGGSLRLSCAASGSILLRYAMGWYRQAPGKERELVAAIRTIGASTYYADSVKGRFTISRDNAKNTVYLQMNSLKPEDTAVYYCNAYLAEVLPLGKGRLYDYWGQGTQVTVSS”, the “polyreactivity (PSR sort gate)” value was “low polyreactivity”. The entry for “QVQLVESGGGLVQAGGSLRLSCAASGSTFGSYGMGWYRQAPGKERELVAVITYSGDRTYYADSVKGRFTISRDNAKNTVYLQMNSLKPEDTAVYYCAADRSYRVSEYDYWGQGTQVTVSS” is “low polyreactivity”; for “QVQLQESAAGLVQAGGGLRLSCPASGTISGPHVMGWYRQSPGKEREFVAAINVGANTYYADNVKGRFTISRDNAKNTVYLQMNSLKPEDTGVYYCAAVYYGDIGHEYWGQGTQVTVSC” it is “low polyreactivity”.

“QVQLVESGGGLVQAGGSLRLSCAASGSIFGSNTMGWYRQAPGKEREFVAAISFSGGSTYYADSVKGRFTISRDNAKNTVYLQMNSLKPEDTAVYYCAARQRRVGTSFYSSRRDYWGQGTQVTVSS”: the “polyreactivity (PSR sort gate)” value is “high polyreactivity”. Take “QVQLVESGGGLVQAAGSLRLSCAASGRIFKLYAMGWYRQAPGKDRELVAGITASGGNTYYADSVKGRFTISRDNAKNTVYLLMNSLKPEDTAVYYCNADRYNKYWYDYWGQGTQVTVSS”: the “polyreactivity (PSR sort gate)” value is given as “high polyreactivity”. Take “QVQLVESGGVLVQAGGSLRLSCAASGRTLGTYAMGWYRQAPGKERELVAAITHSGGTTYYADSVKGRFTISRDNAKNTVYLQMNSLKPEDTAVYYCAADARFRTVSPMDYWGQGTQVTVSS”: the “polyreactivity (PSR sort gate)” value is “low polyreactivity”.
